Reference: patent US20250223359A1 (published 2025)
Residue numbers refer to the chain shown, from its start.

T1: human CD19 (human, UniProt P15391 20-556)
T1 construct: whole, on cells; also called huCD19; hCD19
T1 sequence (looked up): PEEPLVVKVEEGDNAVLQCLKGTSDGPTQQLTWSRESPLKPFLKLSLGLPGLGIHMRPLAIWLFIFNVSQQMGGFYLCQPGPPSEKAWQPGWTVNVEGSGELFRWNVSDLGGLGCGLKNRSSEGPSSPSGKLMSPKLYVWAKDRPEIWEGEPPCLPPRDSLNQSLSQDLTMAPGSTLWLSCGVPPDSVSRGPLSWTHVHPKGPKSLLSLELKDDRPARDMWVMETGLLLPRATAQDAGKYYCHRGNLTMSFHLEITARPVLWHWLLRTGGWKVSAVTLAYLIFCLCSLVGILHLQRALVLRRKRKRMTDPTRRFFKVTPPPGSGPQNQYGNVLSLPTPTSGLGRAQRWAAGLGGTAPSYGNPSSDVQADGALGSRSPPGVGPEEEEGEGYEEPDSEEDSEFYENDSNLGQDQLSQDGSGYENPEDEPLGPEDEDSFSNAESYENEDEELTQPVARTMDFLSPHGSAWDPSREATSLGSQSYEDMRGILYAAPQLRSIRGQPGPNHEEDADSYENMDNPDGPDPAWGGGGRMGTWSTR

B1: Human CD2 (recombinant extracellular domain, Avi-tagged) (receptor)
chain: KEITNALETWGALGQDINLDIPSFQMSDDIDDIKWEKTSDKKKIAQFRKEKETFKEKDTYKLFKNGTLKIKHLKTDDQDIYKVSIYDTKGKNVLEKIFDLKIQERVSKPKISWTCINTTLTCEVMNGTDPELNLYQDGKHLKLSQRVITHKWTTSLSAKFKCTAGNKVSKESSVEPVSCPEKGLD
modifications: site selectively biotinylated during expression (C-terminal Avi-Tag, BirA co-transfection)
notes: Produced in HEK293 cells; also called recombinant human CD2
B2: CD3hi TSP2 (R variant) (other)
heavy: EVQLVQSGAEVKKPGESLKISCKASGYSFTNYWMNWVRQMPGKGLEWMGMIHPSDSEIRLNQKFQGQVTLSVDKSIGTAYMQWSSLKASDTAMYYCSRWYYLSSPMDYWGQGTTVTVSSASTKGPSVFPLAPSSKSTSGGTAALGCLVKDYFPEPVTVSWNSGALTSGVHTFPAVLQSSGLYSLSSVVTVPSSSLGTQTYICNVNHKPSNTKVDKRVEPKSCGGGGSGGGGSEVQLVESGGGLVQPGGSLKLSCAASGFTFNTYAMNWVRQASGKGLEWVGRIRSKYNNYATYYADSVKDRFTISRDDSKSTLYLQMNSLKTEDTAVYYCVRHGNFGNSYVSWFAYWGQGTLVTVSSGGGGSGGGGSGGGGSGGGGSQAVVTQEPSLTVSPGGTVTLTCRSSTGAVTTSNYANWVQQKPGQAPRGLIGGTNKRAPWTPARFSGSLLGDKAALTLSGAQPEDEAEYFCALWYSNLWVFGGGTKLTVLGGGGSDKTHTCPPCPAPELLGGPSVFLFPPKPKDTLMISRTPEVTCVVVAVSHEDPEVKFNWYVDGVEVHNAKTKPREEQYASTYRVVSVLTVLHQDWLNGKEYKCKVSNKALAAPIEKTISKAKGQPREPQVCTLPPSREEMTKNQVSLSCAVKGFYPSDIAVEWESNGQPENNYKTTPPVLDSDGSFFLVSKLTVDKSRWQQGNVFSCSVMHEALHNHYTQKSLSLSPGK
light: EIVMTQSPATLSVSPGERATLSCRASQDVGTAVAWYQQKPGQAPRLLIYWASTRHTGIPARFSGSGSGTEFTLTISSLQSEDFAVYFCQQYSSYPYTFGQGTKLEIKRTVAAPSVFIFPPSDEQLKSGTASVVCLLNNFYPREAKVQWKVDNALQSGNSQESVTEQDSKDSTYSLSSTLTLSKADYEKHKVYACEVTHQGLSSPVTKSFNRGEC
chain: SQQIYGVVYGNVTFHVPSNVPLKEVLWKKQKDKVAELENSEFRAFSSFKNRVYLDTVSGSLTIYNLTSSDEDEYEMESPNITDTMKFFLYVLESGGGGSDKTHTCPPCPAPELLGGPSVFLFPPKPKDTLMISRTPEVTCVVVAVSHEDPEVKFNWYVDGVEVHNAKTKPREEQYASTYRVVSVLTVLHQDWLNGKEYKCKVSNKALAAPIEKTISKAKGQPREPQVYTLPPCREEMTKNQVSLWCLVKGFYPSDIAVEWESNGQPENNYKTTPPVLDSDGSFFLYSKLTVDKSRWQQGNVFSCSVMHEALHNRYTQKSLSLSPGK
notes: also called CD19_NEG218_CD3_16nM-CD58 Trispecific; αCD19(NEG218)-αCD3-CD58IgV
B3: CD3hi TSP1 (R variant) (other)
heavy: QVQLVQSGAEVKKPGASVKVSCKASGYTFTTYWIQWVRQAPGQRLEWMGAVYPGDADTRYTQKFQGRVTLTADRSASTAYMELSSLRSEDTAVYYCGRDAGLEYYALDYWGQGTLVTVSSASTKGPSVFPLAPSSKSTSGGTAALGCLVKDYFPEPVTVSWNSGALTSGVHTFPAVLQSSGLYSLSSVVTVPSSSLGTQTYICNVNHKPSNTKVDKRVEPKSCGGGGSGGGGSEVQLVESGGGLVQPGGSLKLSCAASGFTFNTYAMNWVRQASGKGLEWVGRIRSKYNNYATYYADSVKDRFTISRDDSKSTLYLQMNSLKTEDTAVYYCVRHGNFGNSYVSWFAYWGQGTLVTVSSGGGGSGGGGSGGGGSGGGGSQAVVTQEPSLTVSPGGTVTLTCRSSTGAVTTSNYANWVQQKPGQAPRGLIGGTNKRAPWTPARFSGSLLGDKAALTLSGAQPEDEAEYFCALWYSNLWVFGGGTKLTVLGGGGSDKTHTCPPCPAPELLGGPSVFLFPPKPKDTLMISRTPEVTCVVVAVSHEDPEVKFNWYVDGVEVHNAKTKPREEQYASTYRVVSVLTVLHQDWLNGKEYKCKVSNKALAAPIEKTISKAKGQPREPQVCTLPPSREEMTKNQVSLSCAVKGFYPSDIAVEWESNGQPENNYKTTPPVLDSDGSFFLVSKLTVDKSRWQQGNVFSCSVMHEALHNHYTQKSLSLSPGK
light: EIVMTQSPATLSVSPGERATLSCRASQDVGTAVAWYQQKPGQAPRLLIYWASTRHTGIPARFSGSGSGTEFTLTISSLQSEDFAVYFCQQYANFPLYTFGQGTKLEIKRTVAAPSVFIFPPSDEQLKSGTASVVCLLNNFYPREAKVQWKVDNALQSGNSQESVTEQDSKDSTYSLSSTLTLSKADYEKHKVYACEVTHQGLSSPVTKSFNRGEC
chain: B2 chain
notes: also called CD19_NEG258_CD3_16nM-CD58 Trispecific; αCD19(NEG258)-αCD3(16 nM)-αCD58IgV
B4: CD58 Full ECD (ligand)
chain: SQQIYGVVYGNVTFHVPSNVPLKEVLWKKQKDKVAELENSEFRAFSSFKNRVYLDTVSGSLTIYNLTSSDEDEYEMESPNITDTMKFFLYVLESLPSPTLTCALTNGSIEVQCMIPEHYNSHRGLIMYSWDCPMEQCKRNSTSIYFKMENDLPQKIQCTLSNPLFNTTSSIILTTCIPSSGHSRHRGGGGSHHHHHHHH
B5: CD58_IgV (ligand)
chain: SQQIYGVVYGNVTFHVPSNVPLKEVLWKKQKDKVAELENSEFRAFSSFKNRVYLDTVSGSLTIYNLTSSDEDEYEMESPNITDTMKFFLYVLESGGGGSHHHHHHHH
notes: also called CD58 domain 1; IgV WT
B6: CD58 IgV V45C_M114C (ligand)
chain: B5 chain with V16C, M85C
notes: Disulfide-stabilized variant
B7: CD58 IgV V45C_M105C (ligand)
chain: B5 chain with V16C, M76C
notes: Disulfide-stabilized variant
B8: CD58 IgV V54C_G88C (ligand)
chain: B5 chain with V25C, G59C
notes: Disulfide-stabilized variant

Legend:
CD58 Full ECD = target: B4; experiment: ITC; 100 uM CD2 titrated into 10 uM CD58 variant in HBS
Experimental: (§1) To ensure the binding affinity remained uncompromised by the additional of the stabilizing disulfide variance, isothermal calorimetry (ITC) was performed on the resulting recombinant CD58 proteins to determine their apparent KD and binding stoicheometry (n) to recombinant human CD2.
(§2) Briefly, recombinant human CD2 and recombinant human CD58 variants were dialyzed into HEPES-buffered saline (HBS). CD2 was diluted to final concentration of 100 μM, CD58 variants were diluted to 10 μM. CD2 was titrated into 10 μM of CD58 variants via multiple injections and ΔH (kcal/mole) determined using a MicroCal VP-ITC isothermal titration calorimeter (Malvern). Titrations of CD2 into HBS were used as a reference and KD and n determined from the resulting data.

human CD19 [1] = target: T1, human CD19; experiment: flow cytometry on murine 300.19 cells overexpressing human CD19; serial dilutions; anti-human Fc Alexa-647 secondary
human CD19 [2] = target: T1, human CD19; experiment: flow cytometry on 300.19 cells overexpressing human CD19 (figure legend)
[3] = target: B1; experiment: ITC; 100 uM CD2 titrated into 10 uM CD58 variant in HBS
Experimental: as §1, §2

Binder | n (binding stoichiometry) [3] | Kd [3] | other results
B1 |  |  | Kd (CD58 Full ECD): 570 nM
B2 |  |  | binding result (human CD19 [1]): binds
B3 |  |  | binding result (human CD19 [2]): binds
B4 | 0.92 |  | 
B5 | 0.96 | 610 nM | 
B6 | 0.88 | 380 nM | 
B7 | 0.97 | 880 nM | 
B8 | 0.83 | 600 nM | 
